Test system: Bacillus subtilis
Experiment: cleaved RNA product abundance (RNA/gDNA barcode ratio) relative to median wild-type variant (ratio to wild type); higher = more accumulation of the downstream cleavage product
Conditions: cleavage site: cggR-gapA (positions -7 to +36 mutated)
Method: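 MPRA in B. subtilis. Mutagenized RNase Y cleavage-site regions (9% mutation rate) were inserted into a barcoded reporter mRNA (truncated aprE or tetM). Cells were grown in LB at 37°C to OD600 0.3. The cleaved RNA isoform was gel-purified and its barcodes counted; the RNA:gDNA barcode ratio was normalised to the median wild-type variant, and the median over barcodes is reported per variant. The printed sequence is the variable window only; the reporter flanks are not printed.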

[1] = experiment (reporter, strain, medium): exp 4a: truncated aprE reporter, strain BJT201 with 2% xylose (RNase J1 expressed)
[2] = experiment (reporter, strain, medium): exp 2b: truncated aprE reporter, strain BJT200
[3] = experiment (reporter, strain, medium): exp 6: tetM reporter, strain 168

Row | Sequence | cleaved RNA product abundance [1] | cleaved RNA product abundance [2] | cleaved RNA product abundance [3]
1 | ACAGACGAAGGAGCCGCAAAGAAGATAGTAAGGGATGAATAATCCCTCAATATAAATATCTCTCACTTATTTAAA | 0.265 |  | 
2 | ACAGACGAAGGAGCCGCAAAGAAGATATAAAGGGATGAATAATCCCTCAATATAAATATCTCTCACTTATTTAAA | 0.514 | 0.272 | 
3 | ACAGACGAAGGAGCCGCAAAGAAGATATCAAGGGATGAATAATCCCTCAATATAAATATCTCTCACTTATTTAAA | 0.522 |  | 
4 | ACAGACGAAGGAGCCGCAAAGAAGATATTAAAGGATGAATAATCCCTCAATATAAATATCTCTCACTTATTTAAA | 0.264 | 0.199 | 
5 | ACAGACGAAGGAGCCGCAAAGAAGATATTAACGGATGAATAATCCCTCAATATAAATATCTCTCACTTATTTAAA | 0.207 |  | 
6 | ACAGACGAAGGAGCCGCAAAGAAGATATTAAGAGATGAATAATCCCTCAATATAAATATCTCTCACTTATTTAAA | 0.221 | 0.128 | 
7 | ACAGACGAAGGAGCCGCAAAGAAGATATTAAGGAATGAATAATCCCTCAATATAAATATCTCTCACTTATTTAAA | 0.175 | 0.12 | 
8 | ACAGACGAAGGAGCCGCAAAGAAGATATTAAGGCATGAATAATCCCTCAATATAAATATCTCTCACTTATTTAAA | 0.17 | 0.088 | 
9 | ACAGACGAAGGAGCCGCAAAGAAGATATTAAGGGAAGAATAATCCCTCAATATAAATATCTCTCACTTATTTAAA | 1 |  | 
10 | ACAGACGAAGGAGCCGCAAAGAAGATATTAAGGGAGGAATAATCCCTCAATATAAATATCTCTCACTTATTTAAA | 0.643 |  | 
11 | ACAGACGAAGGAGCCGCAAAGAAGATATTAAGGGATAAATAATCCCTCAATATAAATATCTCTCACTTATTTAAA | 0.78 |  | 0.468
12 | ACAGACGAAGGAGCCGCAAAGAAGATATTAAGGGATCAATAATCCCTCAATATAAATATCTCTCACTTATTTAAA | 0.815 | 0.501 | 
13 | ACAGACGAAGGAGCCGCAAAGAAGATATTAAGGGATGAAAAATCCCTCAATATAAATATCTCTCACTTATTTAAA | 0.376 |  | 
14 | ACAGACGAAGGAGCCGCAAAGAAGATATTAAGGGATGAACAATCCCTCAATATAAATATCTCTCACTTATTTAAA | 0.647 |  | 
15 | ACAGACGAAGGAGCCGCAAAGAAGATATTAAGGGATGAATAAACCCTCAATATAAATATCTCTCACTTATTTAAA | 0.574 |  | 
16 | ACAGACGAAGGAGCCGCAAAGAAGATATTAAGGGATGAATAAGCCCTCAATATAAATATCTCTCACTTATTTAAA | 0.432 |  | 
17 | ACAGACGAAGGAGCCGCAAAGAAGATATTAAGGGATGAATAATACCTCAATATAAATATCTCTCACTTATTTAAA | 0.237 | 0.162 | 
18 | ACAGACGAAGGAGCCGCAAAGAAGATATTAAGGGATGAATAATCACTCAATATAAATATCTCTCACTTATTTAAA | 0.143 | 0.145 | 
19 | ACAGACGAAGGAGCCGCAAAGAAGATATTAAGGGATGAATAATCCATCAATATAAATATCTCTCACTTATTTAAA | 0.207 |  | 

Row | Sequence | cleaved RNA product abundance [1] | cleaved RNA product abundance [2] | cleaved RNA product abundance [3]
20 | ACAGACGAAGGAGCCGCAAAGAAGATATTAAGGGATGAATAATCCCACAATATAAATATCTCTCACTTATTTAAA | 0.311 |  | 
21 | ACAGACGAAGGAGCCGCAAAGAAGATATTAAGGGATGAATAATCCCCCAATATAAATATCTCTCACTTATTTAAA | 0.32 |  | 
22 | ACAGACGAAGGAGCCGCAAAGAAGATATTAAGGGATGAATAATCCCTAAATATAAATATCTCTCACTTATTTAAA | 0.665 | 0.702 | 0.475
23 | ACAGACGAAGGAGCCGCAAAGAAGATATTAAGGGATGAATAATCCCTCAAAATAAATATCTCTCACTTATTTAAA | 0.205 | 0.15 | 
24 | ACAGACGAAGGAGCCGCAAAGAAGATATTAAGGGATGAATAATCCCTCAACATAAATATCTCTCACTTATTTAAA | 0.157 | 0.131 | 
25 | ACAGACGAAGGAGCCGCAAAGAAGATATTAAGGGATGAATAATCCCTCAATAAAAATATCTCTCACTTATTTAAA |  | 0.142 | 
26 | ACAGACGAAGGAGCCGCAAAGAAGATATTAAGGGATGAATAATCCCTCAATATAAAAATCTCTCACTTATTTAAA | 0.576 |  | 
27 | ACAGACGAAGGAGCCGCAAAGAAGATATTAAGGGATGAATAATCCCTCAATATAAAGATCTCTCACTTATTTAAA | 0.559 |  | 
28 | ACAGACGAAGGAGCCGCAAAGAAGATATTAAGGGATGAATAATCCCTCAATATAAATAACTCTCACTTATTTAAA | 1.07 |  | 
29 | ACAGACGAAGGAGCCGCAAAGAAGATATTAAGGGATGAATAATCCCTCAATATAAATATCTCTCACTTATTTAAA | 0.751 | 0.68 | 0.612
30 | ACAGACGAAGGAGCCGCAAAGAAGATATTAAGGGATGAATAATCCCTCAATATAAATGTCTCTCACTTATTTAAA | 0.393 | 0.338 | 
31 | ACAGACGAAGGAGCCGCAAAGAAGATATTAAGGGATGAATAATCCCTCAATTTAAATATCTCTCACTTATTTAAA |  | 0.157 | 
32 | ACAGACGAAGGAGCCGCAAAGAAGATATTAAGGGATGAATAATCCCTCACTATAAATATCTCTCACTTATTTAAA |  | 0.149 | 
33 | ACAGACGAAGGAGCCGCAAAGAAGATATTAAGGGATGAATAATCCCTCTATATAAATATCTCTCACTTATTTAAA | 0.406 | 0.362 | 
34 | ACAGACGAAGGAGCCGCAAAGAAGATATTAAGGGATGAATAATCCCTGAATATAAATATCTCTCACTTATTTAAA | 0.583 |  | 
35 | ACAGACGAAGGAGCCGCAAAGAAGATATTAAGGGATGAATAATCCCTTAATATAAATATCTCTCACTTATTTAAA | 0.192 |  | 
36 | ACAGACGAAGGAGCCGCAAAGAAGATATTAAGGGATGAATAATCCGTCAATATAAATATCTCTCACTTATTTAAA | 0.239 |  | 
37 | ACAGACGAAGGAGCCGCAAAGAAGATATTAAGGGATGAATAATCCTTCAATATAAATATCTCTCACTTATTTAAA | 0.762 |  | 
38 | ACAGACGAAGGAGCCGCAAAGAAGATATTAAGGGATGAATAATCGCTCAATATAAATATCTCTCACTTATTTAAA | 0.228 |  | 

Row | Sequence | cleaved RNA product abundance [1] | cleaved RNA product abundance [2] | cleaved RNA product abundance [3]
39 | ACAGACGAAGGAGCCGCAAAGAAGATATTAAGGGATGAATAATTCCTCAATATAAATATCTCTCACTTATTTAAA | 1.05 |  | 
40 | ACAGACGAAGGAGCCGCAAAGAAGATATTAAGGGATGAATGATCCCTCAATATAAATATCTCTCACTTATTTAAA | 0.565 |  | 
41 | ACAGACGAAGGAGCCGCAAAGAAGATATTAAGGGATGAATTATCCCTCAATATAAATATCTCTCACTTATTTAAA | 0.572 |  | 
42 | ACAGACGAAGGAGCCGCAAAGAAGATATTAAGGGATGATTAATCCCTCAATATAAATATCTCTCACTTATTTAAA | 0.803 |  | 
43 | ACAGACGAAGGAGCCGCAAAGAAGATATTAAGGGATGTATAATCCCTCAATATAAATATCTCTCACTTATTTAAA | 0.603 |  | 
44 | ACAGACGAAGGAGCCGCAAAGAAGATATTAAGGGATTAATAATCCCTCAATATAAATATCTCTCACTTATTTAAA | 0.608 |  | 
45 | ACAGACGAAGGAGCCGCAAAGAAGATATTAAGGGTTGAATAATCCCTCAATATAAATATCTCTCACTTATTTAAA |  | 0.43 | 
46 | ACAGACGAAGGAGCCGCAAAGAAGATATTAAGGTATGAATAATCCCTCAATATAAATATCTCTCACTTATTTAAA | 0.117 | 0.104 | 
47 | ACAGACGAAGGAGCCGCAAAGAAGATATTAAGGTATGAATAATCTCTCAATATAAATATCTCTCACTTATTTAAA |  | 0.105 | 
48 | ACAGACGAAGGAGCCGCAAAGAAGATATTAAGTGATGAATAATCCCTCAATATAAATATCTCTCACTTATTTAAA | 0.137 | 0.103 | 
49 | ACAGACGAAGGAGCCGCAAAGAAGATATTAATGGATGAATAATCCCTCAATATAAATATCTCTCACTTATTTAAA | 0.173 | 0.132 | 
50 | ACAGACGAAGGAGCCGCAAAGAAGATATTACGGGATGAATAATCCCTCAATATAAATATCTCTCACTTATTTAAA | 0.351 | 0.409 | 
51 | ACAGACGAAGGAGCCGCAAAGAAGATCTTAAGGGATGAATAATCCCTCAATATAAATATCTCTCACTTATTTAAA | 0.166 |  | 
52 | ACAGACGAAGGAGCCGCAAAGAAGATGTTAAGGGATGAATAATCCCTCAATATAAATATCTCTCACTTATTTAAA | 0.741 | 0.513 | 
53 | ACAGACGAAGGAGCCGCAAAGAAGATTTTAAGGCATGAATAATCCCTCAATATAAATATCTCTCACTTATTTAAA | 0.143 |  | 
54 | ACAGACGAAGGAGCCGCAAAGAAGCTAATAAGGGATGAATAATCCCTCAATATAAATATCTCTCACTTATTTAAA | 0.286 | 0.247 | 
55 | ACAGACGAAGGAGCCGCAAAGAAGCTATAAAGGGATGAATAATCCCTCAATATAAATATCTCTCACTTATTTAAA | 0.357 | 0.272 | 
56 | ACAGACGAAGGAGCCGCAAAGAAGCTATTAAAGGATGAATAATCCCTCAATATAAATATCTCTCACTTATTTAAA | 0.144 | 0.111 | 
57 | ACAGACGAAGGAGCCGCAAAGAAGCTATTAAGAGATGAATAATCCCTCAATATAAATATCTCTCACTTATTTAAA | 0.123 | 0.0974 | 

— the supplement of paper PMC11780869
